Here are results for one molecule from US20140045211A1 (University of California, published 2014).

The target in experiment [1] is T1, CCR1 on HEK293 cells / HEK293 membranes stably expressing CCR1 (UniProt P32246 1-355, limits assumed).
T1 construct: whole, on cells; also called chemokine receptor CCR1
T1 sequence (looked up): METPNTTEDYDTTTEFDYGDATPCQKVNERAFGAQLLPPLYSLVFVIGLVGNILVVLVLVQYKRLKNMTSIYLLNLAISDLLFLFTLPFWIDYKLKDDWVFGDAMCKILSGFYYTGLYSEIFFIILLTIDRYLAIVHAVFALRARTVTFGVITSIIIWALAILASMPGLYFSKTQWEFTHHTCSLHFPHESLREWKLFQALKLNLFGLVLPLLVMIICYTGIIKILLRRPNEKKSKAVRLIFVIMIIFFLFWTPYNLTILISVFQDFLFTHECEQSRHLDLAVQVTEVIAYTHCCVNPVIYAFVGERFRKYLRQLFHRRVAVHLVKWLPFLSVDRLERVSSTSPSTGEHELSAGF
The experiment in a line: SPA competition assay, HEK293 cells/membranes expressing CCR1; competitor (tracer) 125I-CCL3. Here is the method:
(§1) Scintillation proximity assay (SPA) binding assays (GE Healthcare, Piscataway, N.J.) were conducted essentially as previously described. HEK293 cells stably expressing CCR1 were used for these assays, and untransfected HEK293 cells were used as a control. Assays were undertaken in a 96-well plate format and each data point was assayed in triplicate on a Microbeta plate counter (Perkin Elmer) for 1 min per well. Each well contained 20,000 cells, 0.2 mg WGA-PVT-SPA beads, increasing concentrations of unlabeled competitor chemokine, and either […] ¹²⁵I-CCL3 or […] ¹²⁵I-Streptavidin +400 pM CCL3-Biotin, in a total volume of 100 μL. IC₅₀ values were obtained by nonlinear regression curve fitting using Prism software (GraphPad, La Jolla, Calif.).
(§2) In order to test the use of ¹²⁵I-streptavidin as a surrogate radiolabel in a chemokine SPA assay, competition assays using membranes containing the chemokine receptor CCR1 were performed. CCL3 was used for these assays because ¹²⁵I-CCL3 is commercially available, allowing for a direct comparison. After immobilization of membranes to SPA beads, either radiolabeled chemokine, or a combination of biotinylated chemokine and ¹²⁵I-labeled streptavidin was added. […] In contrast, no binding of CCL3 or competition with CCL14 was observed when CCR1-expressing membranes were replaced with untransfected HEK293 membranes. […]

For experiment [2], the target named is T1, CCR1 on HEK293 cells / HEK293 membranes …. The experiment in a line: SPA competition assay, HEK293 cells/membranes expressing CCR1; competitor (tracer) CCL3-biotin with 125I-streptavidin. Here is the method:
as §1, §2

As usually defined, the IC50 is the point on the concentration scale where inhibition reaches its midpoint.

B1: CCL14 (unlabeled; functional form containing residues 9-74) (ligand)
chain: GPYHPSECCFTYTTYKIPRQRIMDYYETNSQCSKPGIVFITKRGHSVCTNPSDKWVQDYIKDMKEN
notes: Whether the entry is already trimmed to 9-74 is so no residue range is applied; Expressed as a His-ubiquitin fusion and cleaved with Usp2-cc to leave the native N-terminus; also called CCL14/HCC-1; HCC-1 (9-74)
As for B1, the figures for the IC50 in experiment [1] and in experiment [2] were 2.6 nM and 0.9 nM, respectively.
